Data taken from patent publication US20210388097A1 (SORRENTO THERAPEUTICS, published 2021).

Experiments:
[1] = target: T1, human TACI/TNFRSF13B (CD267) His-tag, from Sino Biological (human, UniProt O14836 1-166, limits assumed); experiment: bio-layer interferometry, antibody coupled to AR2G sensor, TACI in solution
T1 construct: Bought protein; not shown: His-tag
T1 sequence (looked up): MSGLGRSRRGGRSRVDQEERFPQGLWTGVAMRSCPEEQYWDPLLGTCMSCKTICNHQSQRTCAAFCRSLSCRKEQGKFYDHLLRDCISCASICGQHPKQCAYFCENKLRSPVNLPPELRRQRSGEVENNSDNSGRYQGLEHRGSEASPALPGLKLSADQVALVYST
Experimental: (§1) Bio-layer interferometry was used to measure cross-binding between (1) two different anti-BCMA antibodies (BCA7-2C5 or BB C11D5) or a control isotype, and (2) various human antigens including TACI and BAFFR.
(§2) Immobilization of antibody was achieved through standard EDC-catalyzed amide bond formation to create a covalent bond between a reactive amine on the protein and the carboxy-terminated biosensor surface. Briefly, AR2G sensors (OctetRED96e from ForteBio) were activated by EDC-NHS for 6 minutes, then 5 ug/ml antibodies were loaded (BCA7-2C5 antibody, Bluebird C11D5 chimeric antibody, or a human IgG isotype antibody) in 10 mM acetate buffer pH 5.0 for 6 minutes, followed by quenching for 6 minutes with 1M ethanolamine pH 8.5. The 3 minutes baseline step removed any unbound antibody from the biosensor, followed by 1.5 minutes each for association of three analyte proteins TACI (human TACI/TNFRSF13B (CD267) His-tag, from Sino Biological, 1 ug/mL in PBS), BAFFR (human BAFFR/TNFRSF13C (CD268) Fc tag) from Sino Biological, 2 ug/mL in PBS), and human BCMA protein (in-house made with mouse Fc, 2 ug/mL in PBS).

[2] = target: T2, human BAFFR/TNFRSF13C (CD268) Fc tag, from Sino Biological (human, UniProt Q96RJ3 1-71, limits assumed); experiment: bio-layer interferometry, antibody coupled to AR2G sensor, BAFFR in solution
T2 construct: Bought protein; not shown: Fc tag
T2 sequence (looked up): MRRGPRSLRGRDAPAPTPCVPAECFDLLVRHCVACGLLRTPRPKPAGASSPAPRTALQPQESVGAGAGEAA
Experimental: as §1, §2

B1: BCA7-2C5 antibody (antibody, V domains shown)
VH: EVQLVESGGGLVKPGGSLRLSCAASGFTSSTAWMSWVRQAPGKGLEWVGRIKSKSDGGTTDYAAPVKGRFTISRDDSKNTLFLQMNSLKTEDTAVYYCAKGGGTYGYWGQGTTVTVSS
VL: QSALTQPASVSGSPGQSVTISCTGTSSAHGGHYYVSWYQQHPGKAPKLMIYDVSNRPSGVSNRFSGSKSGNTASLTISGLQAEDEADYYCGSYTSSGSYVFGTGTKLTVL
[1]
  binding result: no binding (tested: 1 ug/mL)
[2]
  binding result: no binding (tested: 2 ug/mL)
